Results published in patent publication US20180021429A1, “ANTICANCER AGENTS OR ANTIMETASTATIC AGENTS USING FSTL1 AND COMBINATION DRUG THEREOF” (PHARMA FOODS INTERNATIONAL CO., LTD., priority 2015, published 2018).
Residue numbers refer to the chain shown, from its start. “Also recorded” adds a separate entry of the source.

B1: #5-43: chicken-mouse chimeric anti-FSTL1 antibody clone; variable regions SEQ ID NO: 779 (light), 781 (heavy) (antibody, V domains shown)
VH: AVTLDESGGGLQTPGGGLSLVCKGSGFTFSSFNMFWVRQAPGKGLEWVAGIGKDGGTGYGAAVDGRATISKDSGQSTLRLQLNNLRAEDTGTYYCAKAAGGCSYDWCGAYTGDIDTWGHGTEVIVSS
VL: ASTQPSSVSANPGEAVKITCSGGSGSYYGWYQQKSPGSAPVTVIYNNNQRPSDIPSRFSGSKSGSTATLTITGVQAEDEAVYFCGGYDSSTGHGGIFGAGTTLTVL
modifications: mouse constant regions
B2: #5-8: chicken-mouse chimeric anti-FSTL1 antibody clone; variable regions SEQ ID NO: 771 (light), 773 (heavy) (antibody, V domains shown)
VH: B1 VH with G56V, T57P, G58K, A61T, S73N, L78M, Y94F, A109I
VL: B1 VL
modifications: mouse constant regions
B3: #5-3: chicken-mouse chimeric anti-FSTL1 antibody clone; variable regions SEQ ID NO: 767 (light), 769 (heavy) (antibody, V domains shown)
VH: B1 VH with G17A, T28S, G56V, T57P, G58K, S73N, L78M, Y94F, A109I, T111A
VL: ASTQPSSVSANPGETVKITCSGGSGYYYGWYQQKSPGSVPVTVIYNNNNRPSDIPSRFSGSKSGSTGTLTITGVRAEDEAVYYCGGYDNSGTGIFGAGTTLTVL
modifications: mouse constant regions
B4: #7-34: chicken-mouse chimeric anti-FSTL1 antibody clone; variable regions SEQ ID NO: 787 (light), 789 (heavy) (antibody, V domains shown)
VH: AVTLDESGGGLQTPGGGLSLVCKASGFTFSSVTMQWVRQAPGKGLEWVASICSGSSTYYGPAVKGRATISRDNGQNTVRLQLNNLRAEDTATYYCAKIVGRGRWSCTSAAYNIDAWGHGTEVIVSS
VL: ASTQPSSVSANPGETVKITCSGGGNNYGWYQQKSPGSAPVTVIYYNNNRPSNIPSRFSGSTSGSTSTLTITGVQAEDEAVYYCGSYEGSTDSGIFGAGTTLTVL
modifications: mouse constant regions
B5: #8-1: chicken-mouse chimeric anti-FSTL1 antibody clone; variable regions SEQ ID NO: 791 (light), 793 (heavy) (antibody, V domains shown)
VH: B1 VH with G17A, G56V, T57P, G58K, S73N, L78M, Y94F, A109I, T111A
VL: B1 VL with T91S
modifications: mouse constant regions
B6: #8-4: chicken-mouse chimeric anti-FSTL1 antibody clone; variable regions SEQ ID NO: 795 (light), 797 (heavy) (antibody, V domains shown)
VH: B1 VH with F29L, I51V, G58A, K71R, L78V, Y94F, D105S, T111V, I114L, T116A
VL: B3 VL with T3S, V39A, N48D, R50K, R75Q, A76V, Y83F
modifications: mouse constant regions
B7: #6-55: chicken-mouse chimeric anti-FSTL1 antibody clone; variable regions SEQ ID NO: 783 (light), 785 (heavy) (antibody, V domains shown)
VH: AVTLDESGGGLQTPGGALSLVCKGSGFTFTSVTMQWVRQAPGKGLEWVASVCSGSSTYYAPAVKGRATISRDNGQSTVRLQLSNLRPEDTGTYYCAKIAGRARWSCTSAAYNIDAWGHGTEVIVSS
VL: B4 VL with N11I, K33R, N47D, E76D, V80I, Y86W, E87D, G88S, S89N
modifications: mouse constant regions
B8: #8-7: chicken-mouse chimeric anti-FSTL1 antibody clone; variable regions SEQ ID NO: 799 (light), 801 (heavy) (antibody, V domains shown)
VH: B1 VH with G56V, T57P, G58K, S73N, Y94F, A109I, T111A
VL: B1 VL
modifications: mouse constant regions
B9: #5-2: chicken-mouse chimeric anti-FSTL1 antibody clone; variable regions SEQ ID NO: 763 (light), 765 (heavy) (antibody, V domains shown)
VH: B1 VH with I51V, S73N, D105G, A109S, T111V, T116A
VL: B1 VL
modifications: mouse constant regions

The molecules below were run on induction of mesenchymal stem cells (MSCs) by FSTL1 (assay: Inhibitory activity against induction of MSC by FSTL1, CD45-negative cells (Examples 6, 8, 12)). Settings: Example 6, FIG. 5A/35A; FSTL1 50 ng/mL; antibody 10 μg/mL; 11 days.
Type: cell-based, mouse
Procedure: (§1) Mouse bone marrow cells prepared in the same way as in Example 4 were supplemented with 50 ng/mL (final concentration) of FSTL1 and 10 μg/mL of the anti-FSTL1 antibody (#5-2, #5-3, #5-8, #5-10, 45-43, #6-55, or #7-34) or a control antibody anti-DNP antibody and cultured under stimulation. 11 days thereafter, the number of cells was counted while the cells were stained with a PE-Cy5-labeled anti-CD45 antibody (BD Pharmingen/Becton, Dickinson and Company, Cat. No. 555484), and the content of CD45-negative cells reported to generally contain MSCs at a high rate was analyzed by flow cytometry using FACScan to calculate the percentage and number of MSCs per culture (FIG. 5A).
(§2) Mouse bone marrow cells prepared in the same way as in Example 4 were supplemented with 20 ng/mL (final concentration) of FSTL1 and 10 μg/mL of the anti-FSTL1 antibody (#5-2, #5-3, #5-8, #5-10, #5-43, #6-55, #8-1, #8-4, #8-7, and #8-8) or a control antibody anti-DNP antibody and cultured under stimulation. 8 days thereafter, the number of cells was counted while the cells were stained with a PE-Cy5-labeled anti-CD45 antibody, and the content of CD45-negative cells was analyzed by flow cytometry using FACScan to calculate the percentage and number of MSCs per culture (FIG. 6A).
as §2, with “(#5-2,” for “(#5-2, #5-3,”, “#5-8,” for “#5-8, #5-10, #5-43,”, “#6-55, #7-34,” for “#6-55,”, “#8-7, or” for “#8-7, and”, “(FIG. 7).” for “(FIG. 6A).”
as §1, with “35A).” for “5A).”
as §2, with “36A).” for “6A).”
as §2, with “(#5-2,” for “(#5-2, #5-3,”, “#5-8,” for “#5-8, #5-10, #5-43,”, “#6-55, #7-34,” for “#6-55,”, “#8-7, or” for “#8-7, and”, “(FIG. 37).” for “(FIG. 6A).”

Molecule | inhibitory activity against the expansion of CD45-negative cells by FSTL1
B1 | higher inhibitory activity and substantially completely inhibited the action of FSTL1
B2 | higher inhibitory activity and substantially completely inhibited the action of FSTL1
B3 | higher inhibitory activity and substantially completely inhibited the action of FSTL1
B4 | higher inhibitory activity and substantially completely inhibited the action of FSTL1

Same assay, conditions: Example 8, FIG. 6A/36A; FSTL1 20 ng/mL; antibody 10 μg/mL; 8 days

Molecule | inhibitory activity against the expansion of CD45-negative cells by FSTL1
B1 | exhibited inhibitory activity against the expansion of CD45-negative cells by FSTL1; also recorded: Inhibitory activity was confirmed
B5 | exhibited inhibitory activity against the expansion of CD45-negative cells by FSTL1; also recorded: Inhibitory activity was confirmed
B2 | exhibited inhibitory activity against the expansion of CD45-negative cells by FSTL1; also recorded: Inhibitory activity was confirmed
B6 | exhibited inhibitory activity against the expansion of CD45-negative cells by FSTL1
B7 | exhibited inhibitory activity against the expansion of CD45-negative cells by FSTL1; also recorded: Inhibitory activity was confirmed

Same assay, conditions: Example 12, FIG. 7/37; FSTL1 20 ng/mL; antibody 10 μg/mL; 8 days

Molecule | inhibitory activity against the expansion of CD45-negative cells by FSTL1
B8 | higher inhibitory activity was confirmed in the order of #7-34, #5-2, #6-55, and #8-7; also recorded: stronger inhibitory activity was confirmed in the order of clone #7-34, #5-2, 46-55, and #8-7
B9 | higher inhibitory activity was confirmed in the order of #7-34, #5-2, #6-55, and #8-7; also recorded: stronger inhibitory activity was confirmed in the order of clone #7-34, #5-2, 46-55, and #8-7
B7 | higher inhibitory activity was confirmed in the order of #7-34, #5-2, #6-55, and #8-7
B4 | higher inhibitory activity was confirmed in the order of #7-34, #5-2, #6-55, and #8-7; also recorded: stronger inhibitory activity was confirmed in the order of clone #7-34, #5-2, 46-55, and #8-7
